In article PMC4689322:

Target: T1, MBNL1 ZnF3/4 (Homo sapiens, UniProt Q9NR56-2 178-246)
T1 sequence: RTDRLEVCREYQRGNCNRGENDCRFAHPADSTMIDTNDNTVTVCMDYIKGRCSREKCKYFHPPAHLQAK
Test: intrinsic tyrosine fluorescence quenching

UCGCUUUUCCCCUCCGCU (ssRNA) [hcTNT 18-nt (S10)]
Kd: 40 ± 10 nM
